B1: human aryl hydrocarbon receptor (AHR), full length (receptor, UniProt P35869 1-848, looked up)
chain: MNSSSANITYASRKRRKPVQKTVKPIPAEGIKSNPSKRHRDRLNTELDRLASLLPFPQDVINKLDKLSVLRLSVSYLRAKSFFDVALKSSPTERNGGQDNCRAANFREGLNLQEGEFLLQALNGFVLVVTTDALVFYASSTIQDYLGFQQSDVIHQSVYELIHTEDRAEFQRQLHWALNPSQCTESGQGIEEATGLPQTVVCYNPDQIPPENSPLMERCFICRLRCLLDNSSGFLAMNFQGKLKYLHGQKKKGKDGSILPPQLALFAIATPLQPPSILEIRTKNFIFRTKHKLDFTPIGCDAKGRIVLGYTEAELCTRGSGYQFIHAADMLYCAESHIRMIKTGESGMIVFRLLTKNNRWTWVQSNARLLYKNGRPDYIIVTQRPLTDEEGTEHLRKRNTKLPFMFTTGEAVLYEATNPFPAIMDPLPLRTKNGTSGKDSATTSTLSKDSLNPSSLLAAMMQQDESIYLYPASSTSSTAPFENNFFNESMNECRNWQDNTAPMGNDTILKHEQIDQPQDVNSFAGGHPGLFQDSKNSDLYSIMKNLGIDFEDIRHMQNEKFFRNDFSGEVDFRDIDLTDEILTYVQDSLSKSPFIPSDYQQQQSLALNSSCMVQEHLHLEQQQQHHQKQVVVEPQQQLCQKMKHMQVNGMFENWNSNQFVPFNCPQQDPQQYNVFTDLHGISQEFPYKSEMDSMPYTQNFISCNQPVLPQHSKCTELDYPMGSFEPSPYPTTSSLEDFVTCLQLPENQKHGLNPQSAIITPQTCYAGAVSMYQCQPEPQHTHVGQMQYNPVLPGQQAFLNKFQNGVLNETYPAELNNINNTQTTTHLQPLHHPSEARPFPDLTSSGFL
notes: Full length in yeast (PRSAHR) and in the Hsp90 co-IP (huAHR); also called huAHR; Ah receptor

Columns and labels:
[1] = molecular target: T1, AH receptor nuclear translocator (ARNT), full length (human, UniProt P27540 1-789); assay: functional data, assay not described
T1 construct: Full length: in vitro translated, expressed in yeast (PL574) or transfected; Endogenous ARNT in the Hep3B experiment; also called huARNT; hARNT
T1 sequence (P27540 whole entry): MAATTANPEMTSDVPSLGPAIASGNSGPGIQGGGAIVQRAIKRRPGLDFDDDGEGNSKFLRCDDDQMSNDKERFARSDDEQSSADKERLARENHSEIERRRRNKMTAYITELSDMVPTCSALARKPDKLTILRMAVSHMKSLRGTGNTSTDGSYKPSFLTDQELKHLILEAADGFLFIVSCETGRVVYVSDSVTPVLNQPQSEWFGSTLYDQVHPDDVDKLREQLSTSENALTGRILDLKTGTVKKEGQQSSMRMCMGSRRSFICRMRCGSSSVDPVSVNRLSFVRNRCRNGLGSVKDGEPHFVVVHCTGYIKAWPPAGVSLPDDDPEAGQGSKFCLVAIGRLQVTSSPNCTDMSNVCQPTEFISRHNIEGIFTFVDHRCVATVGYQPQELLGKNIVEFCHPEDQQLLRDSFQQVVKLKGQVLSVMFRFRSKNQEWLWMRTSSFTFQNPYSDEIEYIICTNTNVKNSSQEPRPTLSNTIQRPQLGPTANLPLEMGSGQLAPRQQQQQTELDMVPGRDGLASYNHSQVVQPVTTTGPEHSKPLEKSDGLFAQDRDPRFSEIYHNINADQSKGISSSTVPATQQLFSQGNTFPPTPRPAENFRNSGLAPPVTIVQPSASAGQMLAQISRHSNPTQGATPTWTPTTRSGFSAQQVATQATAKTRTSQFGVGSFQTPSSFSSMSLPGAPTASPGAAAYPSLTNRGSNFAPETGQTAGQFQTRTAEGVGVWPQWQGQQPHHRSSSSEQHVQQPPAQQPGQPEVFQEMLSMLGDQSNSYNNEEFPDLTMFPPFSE

[2] = molecular target: T2, Hsp90; assay: co-IP of 35S-labelled in vitro translated protein with anti-Hsp90 antibody 3G3p90, phosphoimager
T2 construct: Endogenous Hsp90 of the translation lysate
Procedure: Coimmunoprecipitation with Hsp90. Each MOP construct was in vitro translated in the presence of [^35S]-methionine in a TNT coupled transcription/translation system (Promega). Hsp90 immunoprecipitation assays were performed with monoclonal antibody 3G3p90 or a control IgM antibody, TEPC 183 (Sigma) essentially as described. Each immunoprecipitation was subjected to SDS-PAGE, and the resulting gel was dried. The level of radioactivity in each coprecipitated protein band was quantified on a Bio-Rad GS-363 Molecular Imager System. The amount of protein immunoprecipitated with the Hsp90 antibody is presented as a percentage of the amount of murine AHR immunoprecipitated in parallel assays.
4. Interaction of MOPs with Hsp90. In an effort to assess a MOP's ability to interact with Hsp90, we performed coimmunoprecipitation assays with anti Hsp90 antibodies. Given the remarkable stability of the Hsp90 complex with the AHR from the C57BL/6J mouse, we used this receptor species as a reference and compared all interactions relative to it. As additional controls, we immunoprecipitated ARNT and the human AHR as negative and positive controls, respectively. Despite our ability to readily detect huAHR-Hsp90 interactions, we were unable to detect ARNT, MOP2 or MOP5 interactions with Hsp90. In contrast, huAHR, MOP1, MOP3 and MOP4 all immunoprecipitated with HSP90-specific antisera. […]

[3] = molecular target: T1, AH receptor nuclear translocator …; assay: yeast interaction trap (mating), X-Gal overlay
Procedure: Interaction Screen Against Known bHLH-PAS Proteins. LexAbHLH-PAS fusion proteins ("baits") of HIF1α, HIF2α, MOP3, MOP4, AHR, ARNT, and CLOCK were transformed into the L40 strain of yeast. The full-length ("fish") MOP3 and ARNT plasmids were transformed into the AMR70 yeast strain, and these transformants were plated onto yeast complete media plates (Kaiser et al., 1994, in *Methods in Yeast Genetics*, Cold Spring Harbor Press, Plainview, N.Y.). The L40 yeast harboring the bait constructs were replica plated onto these yeast complete media plates and mated for 8 hr at 30° C. The plates were then replica plated onto selective media and grown for an additional day at 30° C. 5-Bromo-4-chloro-3-indolyl […]-galactoside (X-Gal) overlay assays were performed to determine the relative expression of the lacZ reporter gene (Bohen and Yamamoto, 1993, PNAS 90: 11424–11428). Western blot analysis, using LexA-specific sera, was performed on extract from each transformant to confirm expression of the fusion protein (see Example 1).

[4] = molecular target: B1; assay: co-IP of 35S-labelled in vitro translated protein with AHR-specific antiserum
Procedure: (§1) 1. Interaction of MOPs with the AHR and ARNT in vitro; Coimmunoprecipitation experiments. We first performed coimmunoprecipitation experiments to determine if MOPs 1–4 had the capacity to interact with either the AHR or ARNT in vitro. These proteins were expressed in a reticulocyte lysate system in the presence of ^35S-methionine and then incubated in the presence or absence of the AHR or ARNT. Complex formation was assayed by coimmunoprecipitation with AHR or ARNT specific antisera, followed by quantitation of coimmunoprecipitated ^35S-labeled MOP by phosphoimage analysis. Interactions were identified by a reproducible increase in an AHR or ARNT-dependent precipitation of MOP protein. Because we have observed considerable variability in this coimmunoprecipitation assay, each experiment was performed at least three times.

[5] = molecular target: T1, AH receptor nuclear translocator …; assay: co-IP of 35S-labelled in vitro translated protein with ARNT-specific antiserum
Procedure: as §1

Binder | percent of the amount of murine AHR immunoprecipitated with the Hsp90 antibody [2] [%] | binding result [3] | other results
MOP6 (other, Mentioned only in the general description) MAPTKPSFQQDPSRRERLQALRKEKSRDAARSRRGKENFEFYELAKLLPLPAAITSQLDKASIIRLTISYLKMRDFANQGDPPWNLRMEGPPPNTSVKGAQRRRSPSALAIEVFEAHLGSHILQSLDGFVFALNQEGKFLYISETVSIYLGLSQVELTGSSVFDYVHPGDHVEMAEQLGMKLPPGRGLLSQGTAEDGASSASSSSQSETPEPVESTSPSLLTTDNTLERSFFIRMKSTLTKRGVHIKSSGYKVIHITGRLRLRVSLSHGRTVPSQIMGLVVVAHALPPPTINEVRIDCHMFVTRVNMDLNIIYCENRISDYMDLTPVDIVGKRCYHFIHAEDVEGIRHSHLDLLNKGQCVTKYYRWMQKNGGYIWIQSSATIAINAKNANEKNIIWVNYLLSNPEYKDTPMDIAQLPHLPEKTSESSETSDSESDSKDTSGITEDNENSKSDEKGNQSENSEDPEPDRKKSGNACDNDMNCNDDGHSSSNPDSRDSDDSFEHSDFENPKAGEDGFGALGAMQIKVERYVESESDLRLQNCESLTSDSAKDSDSAGEAGAQASSKHQKRKKRRKRQKGGSASRRRLSSASSPGGLDAGLVEPPRLLSSPNSASVLKIKTEISEPINFDNDSSIWNYPPNREISRNESPYSMTKPPSSEHFPSPQGGGGGGGGGGGLHVAIPDSVLTPPGADG |  |  | binding result [1]: binds
B1 | 53 |  | 
LexAbHLH-PAS fusion of CLOCK (PL828) (other, UniProt P0A7C2 1-202, looked up, range 1-202;domain: bHLH-PAS domains; also called LexA fusion of CLOCK) MKALTARQQEVFDLIRDHISQTGMPPTRAEIAQRLGFRSPNAAEEHLKALARKGVIEIVSGASRGIRLLQEEEEGLPLVGRVAAGEPLLAQQHIEGHYQVDPSLFKPNADFLLRVSGMSMKDIGIMDGDLLAVHKTQDVRNGQVVVARIDDEVTVKRLKKQGNKVELLPENSEFKPIVVDLRQQSFTIEGLAVGVIRNGDWLMLFTVSCSKMSSIVDRDDSSIFDGLVEEDDKDKAKRVSRNKSEKKRRDQFNVLIKELGSMLPGNARKMDKSTVLQKSIDFLRKHKEITAQSDASEIRQDWKPTFLSNEEFTQLMLEALDGFFLAIMTDGSIIYVSESVTSLLEHLPSDLVDQSIFNFIPEGEHSEVYKILSTHLLESDSLTPEYLKSKNQLEFCCHMLRGTIDPKEPSTYEYVKFIGNFKSLNSVSSSAHNGFEGTIQRTHRPSYEDRVCFVATVRLATPQFIKEMCTVEEPNEEFTSRHSLEWKFLFLDHRAPPIIGYLPFEVLGTSGYDYYHVDDLENLAKCHEHLMQYGKGKSCYYRFLTKGQQWIWLQTHYYITYHQWNSRPEFIVCTHTVVSYAEVRAERRRELG |  | no binding | 
MOP4 (other, also called huMOP4) MDEDEKDRAKRASRNKSEKKRRDQFNVLIKELSSMLPGNTRKMDKTTVLEEVIGFLQKHNEVSAQTEICDIQQDWKPSFLSNEEFTQLMLEALDGFIIAVTTDGSIIYVSDSITPLLGHLPSDVMDQNLLNFLPEQEHSEVYKILSSHMLVTDSPSPEYLKSDGDLEFYCHLLRGSLNPKEFPTYEYIKFVGNFRSYNNVPSPSCNGFDNTLSRPCRVPLGKEVCFIATVRLATPQFLKEMCIVDEPLEEFTSRHSLEWKFLFLDHRAPPIIGYLPFEVLGTSGYDYYHIDDLELLARCHQHLMQFGKGKSCCYRFLTKGQQWIWLQTHYYITYHQWNSKPEFIVCTHSVVSYADVRVERRQELALEDPPSEALHSSALKDKGSSLEPRQHFNALDVGASGLNTSHSPSASSRSSHKSSHTAMSEPTSTPTKLMAEASTPALPRSATLPQELPVPGLSQAATMPAPLPSPSSCDLTQQLLPQTVLQSTPAPMAQFSAQFSMFQTIKDQLEQRTRILQANIRWQQEELHKIQEQLCLVQDSNVQMFLQQPAVSLSFSSTQRPEAQQQLQQRSAAVTQPQLGAGPQLPGQISSAQVTSQHLLRESSVISTQGPKPMRSSQLMQSSGRS | 31 |  | binding result [4]: no binding; binding result [5]: no binding
LexA control (other, UniProt P0A7C2 1-202, looked up) MKALTARQQEVFDLIRDHISQTGMPPTRAEIAQRLGFRSPNAAEEHLKALARKGVIEIVSGASRGIRLLQEEEEGLPLVGRVAAGEPLLAQQHIEGHYQVDPSLFKPNADFLLRVSGMSMKDIGIMDGDLLAVHKTQDVRNGQVVVARIDDEVTVKRLKKQGNKVELLPENSEFKPIVVDLRQQSFTIEGLAVGVIRNGDWL |  | no binding | 

— patent publication US7105647 (WISCONSIN ALUMNI RESEARCH FOUNDATION, dated 2006)
